{"source": "patent US20140234321", "proteins": {"B1": {"name": "Hunk (Hormonally Up-regulated, Neu-Tumor-Associated Kinase), mouse, 714-amino-acid ~80-kDa polypeptide (protein)", "chain": "MPAAAGDGLLGEPAAPGGDGGAEDTTRPAAACEGSFLPAWVSGVSRERLRDFQHHKRVGNYLIGSRKLGEGSFAKVREGLHVLTGEKVAIKVIDKKRAKKDTYVTKNLRREGQIQQMIRHPNITQLLDILETENSYYLVMELCPGGNLMHKIYEKKRLDEAEARRYIRQLISAVEHLHRAGVVHRDLKIENLLLDEDNNIKLIDFGLSNCAGILGYSDPFSTQCGSPAYAAPELLARKKYGPKIDVWSIGVNMYAMLTGTLPFTVEPFSLRALYQKMVDKAMNPLPTQLSTGAVNFLRSLLEPDPVKRPNIQQALANRWLNENYTGKVPCNVTYPNRISLEDLSPSVVLHMTEKLGYKNSDVINTVLSNRACHILAIYFLLNKKLERYLSGKSDIQDSICYKTQLYQIEKCRATKEPYEASLDTWTRDFEFHAVQDKKPKEQEKRGDFLHRPFSKKLDKNLPSHKQPSPSLITQLQSTKALLKDRKASKSGFPDKDSFVCRNLFRKTSDSNCVASSSMEFIPVPPPRTPRIVKKLEPHQPGPGSASILPKEEPLLLDMVRSFESVDREDHIELLSPSHHYRILSSPVSLARRNSSERTLSQGLLSGSTSPLQTPLHSTLVSFAHEEKNSPPKEEGVCSPPPVPSNGLLQPLGSPNCVKSRGRFPMMGIGQMLRKRHQSLQPSSERSLDASMSPLQPIAPSSLSFDMADGVKGQC"}}}
{"protein": "B1", "values": [{"measurement": "in vitro kinase assay of Hunk immunoprecipitates with [gamma-32P]ATP", "setting": "myelin basic protein", "result": "Hunk immunoprecipitates were able to phosphorylate both histone H1 and MBP in vitro"}, {"measurement": "in vitro kinase assay of Hunk immunoprecipitates with [gamma-32P]ATP", "setting": "histone H1", "result": "Hunk immunoprecipitates were able to phosphorylate both histone H1 and MBP in vitro"}, {"measurement": "in vitro kinase assay of anti-Hunk immunoprecipitates with gamma-32P-ATP and histone H1", "setting": "histone H1", "result": "Hunk-associated kinase activity was substantially greater in immunoprecipitates prepared from transgenic when compared with wild type mammary glands"}]}
